In paper PMC11955523, “Cryo-TEM structure of β-glucocerebrosidase in complex with its transporter LIMP-2” (Nature Communications, 2025):

T1: recombinant GCase with C-terminal His10-tag (for cross-linking with SapC) (human, UniProt P04062 40-536)
T1 construct: β-glucocerebrosidase (GCase), with a small spacer and a TEV protease cleavage site before the C-terminal His10-tag; no TEV cleavage is described; source: FreeStyle 293 HEK cells, stably transfected (pcDNA3.1(+)), purified from cell media (HisTrap)
T1 sequence (looked up): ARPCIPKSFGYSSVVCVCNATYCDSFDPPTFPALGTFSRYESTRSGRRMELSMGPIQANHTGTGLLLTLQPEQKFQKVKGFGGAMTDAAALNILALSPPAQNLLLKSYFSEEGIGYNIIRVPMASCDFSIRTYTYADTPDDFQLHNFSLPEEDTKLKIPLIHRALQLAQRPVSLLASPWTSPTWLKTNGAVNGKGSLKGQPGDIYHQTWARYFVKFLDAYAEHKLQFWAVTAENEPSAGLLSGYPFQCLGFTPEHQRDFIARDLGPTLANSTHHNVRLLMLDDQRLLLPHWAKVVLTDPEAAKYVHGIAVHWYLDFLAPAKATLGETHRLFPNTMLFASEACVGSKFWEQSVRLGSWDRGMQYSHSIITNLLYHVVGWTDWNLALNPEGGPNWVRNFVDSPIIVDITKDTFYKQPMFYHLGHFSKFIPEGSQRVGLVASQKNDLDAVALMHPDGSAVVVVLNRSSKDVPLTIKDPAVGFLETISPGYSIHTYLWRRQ

T2: β-glucocerebrosidase (GCase), untagged wild type (human, UniProt P04062 40-536, N-glycans at N19, N59, N146, N270)
T2 construct: β-glucocerebrosidase (GCase), human, gene GBA1, wild type, expressed from the commercial plasmid pCMV3-GBA-wt; also called GCase wt; wt GCase; source: HEK 293F-sL2 cells transfected with pCMV3-GBA-wt, secreted in complex with sLIMP-2, purified (Ni-NTA, SEC); HEK 293F cells co-transfected with sLIMP-2 plasmids, in conditioned medium
T2 sequence (looked up): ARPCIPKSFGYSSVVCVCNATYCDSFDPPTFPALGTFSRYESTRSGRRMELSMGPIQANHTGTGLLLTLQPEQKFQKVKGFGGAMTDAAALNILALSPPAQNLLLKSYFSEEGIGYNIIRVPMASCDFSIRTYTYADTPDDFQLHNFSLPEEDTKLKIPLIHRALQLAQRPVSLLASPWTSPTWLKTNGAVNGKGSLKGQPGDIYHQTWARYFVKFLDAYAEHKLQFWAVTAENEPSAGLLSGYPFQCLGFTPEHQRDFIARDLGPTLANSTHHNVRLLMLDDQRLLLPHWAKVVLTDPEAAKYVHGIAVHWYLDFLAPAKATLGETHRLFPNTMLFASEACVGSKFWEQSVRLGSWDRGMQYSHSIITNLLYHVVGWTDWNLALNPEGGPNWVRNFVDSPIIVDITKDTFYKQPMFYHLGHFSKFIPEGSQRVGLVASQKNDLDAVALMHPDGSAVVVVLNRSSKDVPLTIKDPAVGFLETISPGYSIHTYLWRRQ


Legend:
Conditions in all cases: both partners purified
[1] = molecular target: T3, β-glucocerebrosidase (GCase), untagged wild type (human, UniProt P04062, N-glycans at N19, N59, N146, N270); experiment: cryo-EM structure; GCase/sLIMP-2/PMb1/PMb2 complex from SEC, 0.6 mg/ml, single particle analysis, 3.7 Å global resolution
T3 construct: β-glucocerebrosidase (GCase), human, gene GBA1, wild type, expressed from the commercial plasmid pCMV3-GBA-wt; also called GCase wt; wt GCase; source: HEK 293F-sL2 cells transfected with pCMV3-GBA-wt, secreted in complex with sLIMP-2, purified (Ni-NTA, SEC); HEK 293F cells co-transfected with sLIMP-2 plasmids, in conditioned medium

[2] = molecular target: T4, GCase used for size exclusion chromatography with Nb1 and Nb6 (human, UniProt P04062); experiment: SEC; 20 µM GCase mixed with 100 µM Nb1, Nb6 or both; Superdex 200 Increase 5/150 GL, 10 mM MES, 100 mM NaCl, 1 mM DTT, 5% glycerol, pH 5.2, 12 °C
T4 construct: β-glucocerebrosidase (GCase); it may be the same as m8 or another recombinant GCase

[3] = molecular target: T1, recombinant GCase with C-terminal …; experiment: cross-linking; GCase 16.3-20.0 µM and SapC 32.5 µM in McIlvaine buffer pH 6.0 with 10 mM NaCl (some reactions with 0.1% Triton X-100 and 0.25% sodium taurocholate); BS3(d0)/BS3(d4) or DTSSP at 1 mM, 1 h at room temperature; gel bands read by mass spectrometry
[4] = molecular target: T2, β-glucocerebrosidase (GCase), untagged …; experiment: cryo-EM structure; GCase/sLIMP-2/PMb1/PMb2 complex from SEC, 0.6 mg/ml, single particle analysis, 3.7 Å global resolution

| Binder | binding result [1] | binding result [2] | other results |
| --- | --- | --- | --- |
| pro-macrobody PMb2 (nanobody Nb6, CA16669, fused to maltose binding protein) (VHH, nanobody Nb6 (CA16669) raised against GCase; proline-proline linker, told in words; The N-terminal pelB-10xHis-MBP was removed with 3C protease; Only the nanobody domain is modelled in PDB 9FJF; also called PMbs; source: E. coli MC1061, purified (Ni-NTA, 3C cleavage, second IMAC, SEC); not shown: His10, N-terminal, cleaved; MBP, N-terminal, cleaved) VHH: QVQLVESGGGLVQPGGSLRLSCAASGSIFSINTMGWYRQAPGKEREMVAYIITFGSTNYADSVKGRFTISGDNANNTMWLQMNSLKPEDTAVYYCYAAIRPTDSSTYTSYWGQGTQVTVPP | binds |  |  |
| nanobody Nb6 (CA16669) against GCase (VHH, nanobody Nb6 (CA16669); they are, as the nanobody domain of m4, in PDB 9FJF; Encoded in a pHEN29 vector) VHH: QVQLVESGGGLVQPGGSLRLSCAASGSIFSINTMGWYRQAPGKEREMVAYIITFGSTNYADSVKGRFTISGDNANNTMWLQMNSLKPEDTAVYYCYAAIRPTDSSTYTSYWGQGTQVTVPP |  | binds |  |
| Saposin C (SapC) (natural protein, Homo sapiens, UniProt P07602 311-390, looked up, Saposin C, Homo sapiens, the cut product of prosaposin; synthetic gene, codon optimised for E. coli, in pET-28a(+); The His6-tag is followed by a TEV protease cleavage site; no cleavage is described in the purification; source: E. coli BL21(DE3) or BL21(DE3)pLysS, purified (HisTrap, Superdex 75)) SDVYCEVCEFLVKEVTKLIDNNKTEKEILDAFDKMCSKLPKSLSEECQEVVDTYGSSILSILLEEVSPELVCSMLHLCSG |  |  | binding result [3]: binds |
| pro-macrobody PMb1 (nanobody Nb1, CA16655, fused to maltose binding protein) (VHH, nanobody Nb1 (CA16655) raised against GCase; proline-proline linker, told in words; The N-terminal pelB-10xHis-MBP was removed with 3C protease; the C-terminal MBP is part of the pro-macrobody and was detected by anti-MBP blot; By my reading of the printed primers the C-terminal MBP begins at LVIWING after the PP linker and ends at KDAQT followed by PGA; Only the nanobody domain is modelled in …) VHH: QVQLVESGGGLVQPGGSLRLSCAASGFTLDYYAIGWFRQAPGKEREGVSCISSSDGSTYYADSAKGRFTISRDNAKNTVYLQMNSLKPEDTAVYYCATDRGQCTYYSSGYYRDLRWYDYWGQGTQVTVPP | binds |  |  |
| nanobody Nb1 (CA16655) against GCase (VHH, nanobody Nb1 (CA16655); they are in PDB 9ENA and, as the nanobody domain of m3, in PDB 9FJF; Encoded in a pHEN29 vector; also called Nbs1) VHH: QVQLVESGGGLVQPGGSLRLSCAASGFTLDYYAIGWFRQAPGKEREGVSCISSSDGSTYYADSAKGRFTISRDNAKNTVYLQMNSLKPEDTAVYYCATDRGQCTYYSSGYYRDLRWYDYWGQGTQVTVSS |  | binds |  |
| soluble LIMP-2 shuttle construct (sLIMP-2), secreted LIMP-2 ectodomain, wild type (domain or fragment, human, UniProt Q14108 36-431, looked up, N-glycans at N45, N68, N105, N206, N224, N249, N304, N325, N412, lysosomal integral membrane protein type-2 (LIMP-2), human, gene SCARB2, amino acids 36-431 (ectodomain); the 10xHis tag is TEV-cleavable, and no cleavage is described; also called wt sLIMP-2; lysosomal integral membrane protein type-2; source: HEK 293F cells transfected, in conditioned medium; not shown: His10, C-terminal, kept) SIEKKIVLRNGTEAFDSWEKPPLPVYTQFYFFNVTNPEEILRGETPRVEEVGPYTYRELRNKANIQFGDNGTTISAVSNKAYVFERDQSVGDPKIDLIRTLNIPVLTVIEWSQVHFLREIIEAMLKAYQQKLFVTHTVDELLWGYKDEILSLIHVFRPDISPYFGLFYEKNGTNDGDYVFLTGEDSYLNFTKIVEWNGKTSLDWWITDKCNMINGTDGDSFHPLITKDEVLYVFPSDFCRSVYITFSDYESVQGLPAFRYKVPAEILANTSDNAGFCIPEGNCLGSGVLNVSICKNGAPIIMSFPHFYQADERFVSAIEGMHPNQEDHETFVDINPLTGIILKAAKRFQINIYVKKLDDFVETGDIRTMVFPVMYLNESVHIDKETASRLKSMINT |  |  | binding result [4]: binds |
